Measured values as given in article PMC10703879 (2023).

T1: BCMAECD-Fc (dimerized, Fc-tagged human BCMA extracellular domain) (human, UniProt Q02223-1 1-54, not fully specified)
T1 chain: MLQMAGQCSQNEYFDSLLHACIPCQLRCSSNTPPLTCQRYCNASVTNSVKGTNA

T2: BCMAECD-His (monomeric, His-tagged human BCMA extracellular domain) (human, UniProt Q02223-1 1-54)
T2 chain: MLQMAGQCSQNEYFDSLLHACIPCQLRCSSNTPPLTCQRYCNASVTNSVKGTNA


Legend:
[1] = biological target: T1, BCMAECD-Fc (dimerized, Fc-tagged human …); experiment: SPR
[2] = biological target: T2, BCMAECD-His (monomeric, His-tagged …); experiment: SPR

| koff [1] | koff [2] | Binder |
| --- | --- | --- |
| 0.0108 s⁻¹ | 0.0264 s⁻¹ | Nb2 (anti-BCMA nanobody 2 of the cilta-cel CAR) (VHH) VHH: EVQLVESGGGLVQAGGSLRLSCAASGRTFTMGWFRQAPGKEREFVAAISLSPTLAYYAESVKGRFTISRDNAKNTVVLQMNSLKPEDTALYYCAADRKSVMSIRPDYWGQGTQVTVSS |
| 2.94e-05 s⁻¹ | 6.52e-05 s⁻¹ | Nb1 (anti-BCMA nanobody 1 of the cilta-cel CAR) (VHH) VHH: QVKLEESGGGLVQAGRSLRLSCAASEHTFSSHVMGWFRQAPGKERESVAVIGWRDISTSYADSVKGRFTISRDNAKKTLYLQMNSLKPEDTAVYYCAARRIDAADFDSWGQGTQVTVSS |
